# Data taken from patent US20230140797A1 (published 2023).
# Positions count from the first letter of the chain named.
# B1: IL6R-BP536/IL6R-L (antibody, human IgG1, kappa)
# heavy: QVQLQESGPGLVKPSETLSLTCAVSGHSISHDHAWSWVRQPPGEGLEWIGFISYSGITNYNPSLQGRVTISRDNSKNTLYLQMNSLRAEDTAVYYCARSLARTTAMDYWGEGTLVTVSSASTKGPSVFPLAPSSKSTSGGTAALGCLVKDYFPEPVTVSWNSGALTSGVHTFPAVLQSSGLYSLSSVVTVPSSSLGTQTYICNVNHKPSNTKVDKKVEPKSCDKTHTCPPCPAPDLLGDDSVFLFPPKPKDTLMISRTPEVTCVVIDVSEEDGEVKFNWYVDGVEVHNAKTKPREEQDNSTYRVVSVLTVLHQDWLNGKEYKCKVSNKGLPRPIEKTISKAKGQPREPQVYTLPPSRDELTKNQVSLTCLVKGFYPSDIAVEWESNGQPENNYKTTPMVLDSDGSFFLYSKLTVDKSRWQQGNVFSCSVMHEALHNHYTQESLSLSP
# light: not shown
# B2: IL6R-BP539/IL6R-L (antibody, human IgG1, kappa)
# heavy: B1 heavy with D235E, S269G, E274P, G329A, M398P
# light: not shown
# B3: IL6R-BP550/IL6R-L (antibody, human IgG1, kappa)
# heavy: B1 heavy with D235E, S269G, E274D, G329A, M398P
# light: not shown
# B4: IL6R-BP551/IL6R-L (antibody, human IgG1, kappa)
# heavy: B1 heavy with D235E, E274D, G329A, M398P
# light: not shown
# B5: IL6R-BP565/IL6R-L (antibody, human IgG1, kappa)
# heavy: B1 heavy with I266V, S269A, G329A, M398P
# light: not shown
# B6: IL6R-BP567/IL6R-L (antibody, human IgG1, kappa)
# heavy: B1 heavy with D239G, S269A, G329A, R332A, M398P
# light: not shown
# B7: IL6R-BP568/IL6R-L (antibody, human IgG1, kappa)
# heavy: B1 heavy with D239G, S269A, D298Y, G329A, R332A, M398P
# light: not shown
# B8: IL6R-2B002/IL6R-L (antibody, human IgG1, kappa)
# heavy: B1 heavy with D239G, I266V, E270H, G273P, D298Y, G329A, R332A, M398P
# light: not shown
# B9: IL6R-2B128/IL6R-L (antibody, human IgG1, kappa)
# heavy: B1 heavy with D235E, D239G, I266V, E270H, G273P, G329A, R332A, M398P
# light: not shown
# B10: IL6R-2B169/IL6R-L (antibody, human IgG1, kappa)
# heavy: B1 heavy with D235E, D239G, I266V, E270H, G273P, D298Y, V325I, G329A, R332A, M398P
# light: not shown
# B11: IL6R-2B172/IL6R-L (antibody, human IgG1, kappa)
# heavy: B1 heavy with D235E, D239G, I266V, E270H, G273P, D298Y, V325M, G329A, R332A, M398P
# light: not shown
# B12: IL6R-BP078/IL6R-L (antibody, human IgG1, kappa)
# heavy: B1 heavy with D235E, D239G, I266V, E270H, G273P, D298Y, G329A, R332M, M398P
# light: not shown
# B13: IL6R-BP100/IL6R-L (antibody, human IgG1, kappa)
# heavy: B1 heavy with D235E, D239G, I266V, S269A, E270H, G273P, D298Y, G329A, R332A, M398P
# light: not shown
# B14: IL6R-BP102/IL6R-L (antibody, human IgG1, kappa)
# heavy: B1 heavy with D235E, D239G, I266V, S269Q, E270H, G273P, D298Y, G329A, R332A, M398P
# light: not shown
# B15: IL6R-BP103/IL6R-L (antibody, human IgG1, kappa)
# heavy: B1 heavy with D235E, D239G, I266V, S269V, E270H, G273P, D298Y, G329A, R332A, M398P
# light: not shown
# B16: IL6R-BP106/IL6R-L (antibody, human IgG1, kappa)
# heavy: B1 heavy with D235E, D239G, I266V, E270D, G273P, D298Y, G329A, R332A, M398P
# light: not shown
# B17: IL6R-BP110/IL6R-L (antibody, human IgG1, kappa)
# heavy: B1 heavy with D235E, D239G, I266V, E270N, G273P, D298Y, G329A, R332A, M398P
# light: not shown
# B18: IL6R-BP112/IL6R-L (antibody, human IgG1, kappa)
# heavy: B1 heavy with D235E, D239G, I266V, E270H, D298Y, G329A, R332A, M398P
# light: not shown
# Biological target: T1, human FcγRIIb extracellular domain with C-terminal His tag (human, UniProt P31994 43-217)
# T1 sequence (looked up): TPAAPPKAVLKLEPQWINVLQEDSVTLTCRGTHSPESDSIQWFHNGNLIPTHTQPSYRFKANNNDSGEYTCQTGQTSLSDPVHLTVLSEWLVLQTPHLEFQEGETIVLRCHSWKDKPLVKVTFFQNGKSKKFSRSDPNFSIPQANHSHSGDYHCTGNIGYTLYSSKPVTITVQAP
# Experiment: SPR
row,Binder,KD (IIaH)/KD (IIb)
1,B1,438
2,B2,667
3,B3,655
4,B4,436
5,B5,856
6,B6,1230
7,B7,748

# Biological target: T2, human FcγRIIb extracellular domain with C-terminal His tag (human, UniProt P31994 43-217)
# T2 sequence (looked up): T1 sequence (looked up)
# Experiment: SPR Biacore, ratio of KDs
row,Binder,KD (IIb) of the parent polypeptide/KD (IIb) of the altered polypeptide
1,B8,3.3 fold (parent IL6R-B3/IL6R-L)
2,B9,2.1 fold (parent IL6R-B3/IL6R-L)
3,B10,2.6 fold (parent IL6R-B3/IL6R-L)
4,B11,4 fold (parent IL6R-B3/IL6R-L)
5,B12,2.8 fold (parent IL6R-B3/IL6R-L)
6,B13,2.9 fold (parent IL6R-B3/IL6R-L)
7,B14,3.4 fold (parent IL6R-B3/IL6R-L)
8,B15,2.5 fold (parent IL6R-B3/IL6R-L)
9,B16,3.3 fold (parent IL6R-B3/IL6R-L)
10,B17,2.1 fold (parent IL6R-B3/IL6R-L)
11,B18,9.7 fold (parent IL6R-B3/IL6R-L)

# Biological target: T1, human FcγRIIb extracellular domain with …
# Experiment: SPR
# Remark: another data set of the same source
row,Binder,KD (IIaR)/KD (IIb)
1,B1,26.6
2,B2,38
3,B3,44.2
4,B4,38.1
5,B5,41.5
6,B6,64.4
7,B7,46.1
